Reference: publication PMC5394233, “Structural and functional analysis of the human POT1-TPP1 telomeric complex” (Nature Communications, 2017)
Substitutions are numbered along the chain they refer to.

Experiments:
[1] = target: flPOT1 L343F;TPP1(87) (Homo sapiens;Homo sapiens, UniProt Q9NUX5;Q96AP0 1-634;1-458, L343F|); test: fluorescence polarization; wild-type affinity stated; FP: 20 mM Hepes pH 7.5, 100 mM KCl, 2 mM MgCl2, 1 mM EDTA, 2 mM DTT, 1 mg/ml BSA, 5% glycerol, 75 nM polyT50 competitor, 2.5 nM probe, room temperature 30 min; conditions: protein: recombinant;recombinant, tags: N-terminal His6-pMocr, TEV-cleaved;N-terminal His6-MBP, copies: 1;1, label: 5' 6-FAM, single strand
[2] = target: flPOT1 R477T;TPP1(87) (Homo sapiens;Homo sapiens, UniProt Q9NUX5;Q96AP0 1-634;1-458, R477T|); test: as above; conditions: protein: recombinant;recombinant, tags: N-terminal His6-pMocr, TEV-cleaved;N-terminal His6-MBP, copies: 1;1, label: 5' 6-FAM, single strand
[3] = target: T1, flPOT1 WT (Homo sapiens, UniProt Q9NUX5 1-634); test: fluorescence polarization; FP: 20 mM Hepes pH 7.5, 100 mM KCl, 2 mM MgCl2, 1 mM EDTA, 2 mM DTT, 1 mg/ml BSA, 5% glycerol, 75 nM polyT50 competitor, 2.5 nM probe, room temperature 30 min; conditions: protein: recombinant; tags: N-terminal His6-pMocr, TEV-cleaved; label: 5' 6-FAM; single strand
T1 sequence: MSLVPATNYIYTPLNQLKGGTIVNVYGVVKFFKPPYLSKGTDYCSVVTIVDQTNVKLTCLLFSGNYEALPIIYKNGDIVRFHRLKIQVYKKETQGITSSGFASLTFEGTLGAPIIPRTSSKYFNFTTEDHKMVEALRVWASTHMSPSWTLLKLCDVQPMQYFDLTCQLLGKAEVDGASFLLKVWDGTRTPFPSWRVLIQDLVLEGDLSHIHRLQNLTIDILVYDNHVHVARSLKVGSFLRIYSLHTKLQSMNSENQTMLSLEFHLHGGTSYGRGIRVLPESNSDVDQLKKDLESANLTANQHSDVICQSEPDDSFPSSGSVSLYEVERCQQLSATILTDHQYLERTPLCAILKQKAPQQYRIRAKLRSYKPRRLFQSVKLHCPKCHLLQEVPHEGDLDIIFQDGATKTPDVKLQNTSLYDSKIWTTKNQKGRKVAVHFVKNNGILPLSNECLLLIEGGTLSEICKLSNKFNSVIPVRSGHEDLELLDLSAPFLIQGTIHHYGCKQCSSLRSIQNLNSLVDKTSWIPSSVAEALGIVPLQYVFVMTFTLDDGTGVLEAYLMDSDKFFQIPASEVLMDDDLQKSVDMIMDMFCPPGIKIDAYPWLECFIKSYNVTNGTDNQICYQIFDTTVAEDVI

[4] = target: T2, flPOT1 C591W (Homo sapiens, UniProt Q9NUX5 1-634, C591W); test: as above; conditions: protein: recombinant; tags: N-terminal His6-pMocr, TEV-cleaved; label: 5' 6-FAM; single strand
T2 sequence: T1 sequence with C591W

[5] = target: flPOT1 P446Q;TPP1(87) (Homo sapiens;Homo sapiens, UniProt Q9NUX5;Q96AP0 1-634;1-458, P446Q|); test: as above; conditions: protein: recombinant;recombinant, tags: N-terminal His6-pMocr, TEV-cleaved;N-terminal His6-MBP, copies: 1;1, label: 5' 6-FAM, single strand
[6] = target: T3, flPOT1 Q623H (Homo sapiens, UniProt Q9NUX5 1-634, Q623H); test: as above; conditions: protein: recombinant; tags: N-terminal His6-pMocr, TEV-cleaved; label: 5' 6-FAM; single strand
T3 sequence: T1 sequence with Q623H

Sequence of flPOT1 P446Q;TPP1(87) (Q9NUX5 whole entry P446Q, chain 1 of 2): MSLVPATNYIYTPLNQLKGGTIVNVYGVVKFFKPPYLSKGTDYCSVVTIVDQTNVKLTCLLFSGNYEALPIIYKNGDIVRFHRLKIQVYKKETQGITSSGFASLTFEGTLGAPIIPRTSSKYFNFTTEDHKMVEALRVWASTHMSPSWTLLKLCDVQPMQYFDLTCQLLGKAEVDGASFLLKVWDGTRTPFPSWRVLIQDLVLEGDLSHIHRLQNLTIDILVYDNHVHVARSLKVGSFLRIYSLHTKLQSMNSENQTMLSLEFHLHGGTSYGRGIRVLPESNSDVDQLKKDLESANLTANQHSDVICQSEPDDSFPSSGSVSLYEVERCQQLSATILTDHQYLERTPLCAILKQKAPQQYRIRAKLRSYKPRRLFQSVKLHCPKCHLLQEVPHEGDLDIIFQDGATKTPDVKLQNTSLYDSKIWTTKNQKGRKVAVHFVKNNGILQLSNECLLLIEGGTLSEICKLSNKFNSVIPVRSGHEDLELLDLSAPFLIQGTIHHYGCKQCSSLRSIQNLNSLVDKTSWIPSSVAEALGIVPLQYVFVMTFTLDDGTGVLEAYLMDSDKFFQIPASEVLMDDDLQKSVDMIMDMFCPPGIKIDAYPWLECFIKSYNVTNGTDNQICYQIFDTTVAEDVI
Sequence of flPOT1 P446Q;TPP1(87) (Q96AP0 whole entry, chain 2 of 2): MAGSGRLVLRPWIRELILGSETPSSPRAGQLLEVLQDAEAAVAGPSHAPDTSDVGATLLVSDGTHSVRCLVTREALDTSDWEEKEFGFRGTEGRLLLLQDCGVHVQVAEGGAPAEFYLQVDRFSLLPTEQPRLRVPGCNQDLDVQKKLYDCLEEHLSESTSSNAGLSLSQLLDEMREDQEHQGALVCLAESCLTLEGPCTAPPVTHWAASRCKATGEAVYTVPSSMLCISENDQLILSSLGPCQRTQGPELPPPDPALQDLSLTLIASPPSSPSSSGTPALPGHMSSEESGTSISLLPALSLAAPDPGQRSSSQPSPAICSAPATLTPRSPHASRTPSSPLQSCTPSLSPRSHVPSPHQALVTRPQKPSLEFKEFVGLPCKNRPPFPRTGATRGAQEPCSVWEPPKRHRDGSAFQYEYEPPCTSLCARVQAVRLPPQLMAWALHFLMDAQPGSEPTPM
Sequence of flPOT1 L343F;TPP1(87) (Q96AP0 whole entry, stated change not applied, one chain of several): as the sequence (Q96AP0 whole entry, chain 2 of 2) above
Sequence of flPOT1 R477T;TPP1(87) (Q96AP0 whole entry, stated change not applied, one chain of several): as the sequence (Q96AP0 whole entry, chain 2 of 2) above

B1: telomeric 18mer (TTAGGG)3 (ssDNA)
DNA: TTAGGGTTAGGGTTAGGG
- binding result [1]: binds
- binding result [2]: binds
- Kd [3]: ~20 nM
- Kd [4]: ~20 nM
- Kd [5]: 10.3 ± 1 nM
- Kd [6]: ~20 nM
